Laboratory results taken from the DeepSol protein solubility set.

assay: soluble on expression in E. coli; label from the status in PepcDB or PDB records

Sequence	soluble on expression in E. coli
MSDSKPRDVQVLPIATNTKVLRARSWSRLRFEIEYALERGTTSNSYVIEGDKTAIIDPPVESFMKIYLEALQQTVNLKKLDYVILGHFSPNRIPTFKALLELAPQITFVCSLPAAGDLRAAFPDDNLNILPMRGKETLDLGKGHVLKFLPIPSPRWPAGLCTYDVQTQILYTDKIFGAHICGDDVFDDNWESFKEDQRYYFNCLMAPHAIHVEAALEKISDLQVRLYAVGHGPLVRTSLIALTQAYADWSKAQKDREISVALLYASAYGNTATIARAIALGLTKGGVAVKSINCEFATPEEIQTNLEQVDGFLIGSPTIGGHAPTPINTALGIVLKVGDNNKLAGVFGSYGWSGEALDMIEGKLRDAGYRFGLDTLKVKFKPDDVTLKFCEEVGTDFAQTLKKAKKVRVPQQAATPVEQAVGRIVGSVCVITAKQGDVSTGMLGSWVSQATFNPPGLTVAIAKERAIESLMYPGGKFALNILSEGNHLEYMKHFRKNFAPGEDRFANFTTTEADNGCTVLADALAYVECSVDQRLECGDHWVVYATVDNGKLLKPDDVTAINHRKTGNHY	soluble
MSDSWTERWNDRYSNEIFAYGEKPNNYLKAQLENLQPGTILFAAEGEGRNAVFAACLGWDVQAFDISSEGKKKAFQLAEKNQVTIAYQVGQLETLGYTAGQFDALALIYAHFPATVKSAYHRILSSYVRSGGYIIFEAFSKKHLDYLAKNEQVGGPKEFDMLFSIEEIKADFPDYEILELEEKEIELNEGQFHNGTGSVIRFTGRKKLEHHHHHH	not soluble
MSDTDYYRELEASEQRLSDSRAANRESIRTVEDKISDEREKHVARMSEKEKKHHENMLRLTNSSAAERKSAEEAHRKSVEQLKEKHKNETEKLETQIKEIKEKGEEDVRKVELQRANLEKQRTEALDIHLETMKELNEKKFEEIRQQRKEQNILNVEEMKALSTRNAIEHETQMGLIDDTQNMILSRESRQSSLTLIGHMMKSIESGDAISSLLQEMKTYCENRDQYSPTDIKIMKNISADIGKHRAKCDFQRQQLISKINLESNADPQVVDGCFEMSMKMKCCVESSDLRSVCTTLPLLAAQQEHARISGIINKIGSLTDNLDAINVEIKTKSIQWSRRITNALTNTTGN	not soluble
MSDVAEEKAEFLVIRTYGSESFRKECADLIEKELHKLNATIARVPVGEFVAYAENAVKNETDSEAVGSSSVKRENSANDSPANTNDVDIVSSPVKRGRGRKAKNPSADADVNDTGSSPVKKGRGRPIKNPSADAGSPLVKKGRGRRAQTPAADTDAIDTASSPVKKGRGRPAKNPSADAGSPLVKKGRGRQAKNLAADTDAIDTASSPVKKGRGRPLKKTAAEADVNGLGSPSANRITGCPPSTKVSNQSSPPEPAVNESEEADEPVLKRGRSVKQPKDESESDDEDAEKAPAAIPKKRGRPGKSAIDAFFDGSD	soluble
MSEDLMDLSPEEGIERFLRHREPSVRESTMRNAKTRLRFFNEWCEERDIENLNNLTGRDLADFVAWRRGDIAALTLQKQLSTIREALRYWADIEGVDDGLAEKVHAPELEHHHHHH	not soluble
MSEDWPQHFPPRGTVPDAEVYDQFISASTLQWWYVNAHLTVKGEDNSSLAFFASFFRQAGDNCPTAATKYYDACVWALIDLKNKKCYAESALDPESIDQLKLRLDPAVMGRKLEHVEVALLELLNKGRVPRPDRLLKRKAVYTQHPFSIALDDSCVMTIAQEGSARRYTFSLTNAADDVHVEVCLETQQQPVLHGKDGCVNGMYYYYFPSMSVTGYVVVKGLKREVTGLGWYDREVGGSTAEVDREAKYTWSWLSLHASNMSQLSIFYISGNAEDEGKERVIVETRADGSRHYHDDLIMETNKSWSSLVTFMQYPSEFRLCSASMGLDVTIHTAFDAQEIGTVLVGGAGFYEGVVEGSGVCSGDAVTLRGFFEYKKNAAPYRNTSELLKYVGSYVHGALEEIYPLAASDSWLSENVLGRYAMDRGAPADKICETLFRPVRSIIDRGGKSWRSLILVSCCNALSRQYFDCRRYIAVAELLHVGSLIIDDIQDNSVVRRGGKCVHVEYGVATAINAGSACYFMGPRAARIQDLPPEKASRIYQLYFDVLLAGHAGQGLDIYRLDYLMPKVVETGDASTLFDALDAIHTYKTGGAVGALCSMACVLCEAPTVLSEAVERFGLALGLAFQIVDDALNIRGFEENLKEEAEDIKDGKITYPTAIAMGRLEAADRQTLWAILRKPTKEAADIQQAVELIMKVDATSECFLIARHRLQEMWNALDPLLEDSFPKLLMRTFCSFLVERKY	soluble
MSEEGFMLAVLKGIPLIQDIRAEGNSRSWIMTIDGHPARGEIFSEAFSISLFLNDLESLPKPCLAYVTLLLAAHPDVHDYAIQLTADGGWLNGYYTTSSSSELIAIEIEKHLALTCILKNVIRNHHKLYSGGV	not soluble
MSEGPKKAGVLGSPIAHSRSPQLHLAAYRALGLHDWTYERIECGAAELPVVVGGFGPEWVGVSVTMPGKFAALRFADERTARADLVGSANTLVRTPHGWRADNTDIDGVAGALGAAAGHALVLGSGGTAPAAVVGLAELGVTDITVVARNSDKAARLVDLGTRVGVATRFCAFDSGGLADAVAAAEVLVSTIPAEVAAGYAGTLAAIPVLLDAIYDPWPTPLAAAVGSAGGRVISGLQMLLHQAFAQVEQFTGLPAPREAMTCALAALD	not soluble
MSEISAIWERIEAWHAANDQTENLNPGATAEALAQAEKDMGLTFPPEMRESLLRHDGSVDDSWPTGELLSLERMADERKVWMDLLQDGTFDGNASHNESSEALQPGWWNPAWIPLDADGGGNGAVIDLAPGPQGTVGQVIDMDHEVGPSGPKYVSLAAYLEAMLERLSEAEE	soluble
MSEKFEHYYTVEPTSKLKVREARLVLKNGHEYIFKTPSGVYSYGKIDKATQVLLENLKVHGKKVLDLGCGYGVIGIVLKKEYPDLEVYMSDINKRAVEFAKINAKDHNVEVDIRWGNLYEPWEDMKFDMIVCNPPIVAGKKVWMEIVKSAPEFLEEGGSLQIVAYHNKGGRRIRDFMKEVFGNVEELCKTGGIRVYRSVKGLKEDEDNAE	not soluble
MSEKIRVLLYYKYVSIENAQEYAAKHLEFCKSIGLKGRILIADEGINGTVSGDYETTQKYMDWVHSDERFADLWFKIDEENQQAFRKMFVRYKKEIVHLGLEDNNFDSDINPLETTGEYLNPKQFKEALLDEDTVVLDTRNDYEYDLGHFRGAIRPDIRNFRELPQWVRDNKDKFMEKRVVVYCTGGVRCEKFSGWMVREGFKDVGQLHGGIATYGKDPEVQGELWDGAMYVFDDRISVPINHVNPTVISKDYFDGTPCERYVNCANPFCNKQIFASEENETKYVRGCSPECRAHERNRYVQENGLSRQEWAERLEAIGESLPEFVGA	not soluble
MSEKLKIVYRPLQELSPYAHNARTHSTEQVAQLVESIKQFGWTNPVLIDEKGEIIAGHGRVMAAEMLKMDSVPVIVLSGLTDEQKQR	soluble
MSEKTYELATFAGGCFWCMVKPFDELPDIHKVLSGYAGGHVENPTYEQVKAGTSGHLEVVQITFDPSIFPYEKLLNLYWPQIDPTDDGGQFFDRGPSYRTAIFYHTETQKELAEKSKHSLAESGMFKDPIVTEIRPAAPFYEAEEYHQHFYKKNPEKYATEQKESGREDFIKENWQKK	not soluble
MSELRVISLDEVSKHNWEDADQSCWIVISGKVYDVTKFLNEHPGGEEVITQLAGKDATVGFLDVGHSKDAIEMANEYLIGQLPESDVPKVETAAAKPSKNEKSSSLLNDFTEIMTSPTWTNFLIPTTMGLVIYAVYKCMFN	not soluble
MSENIRESISAKTLSKDQMETSYVSLKTWIEDSLDLFKNDLLPLLYPLFIHIYFDLIQQNKTDEAKEFFEKYRGDHYNKSEEIKQFESIYTVQHIHENNFAYTFKNSKYHLSMGRYAFDLLINFLEERNLTYILKILNQHLDIKVYVGPKSEERPQGIETSVVDAEIDLTTFLVSRECEDAILGDEQYRYDHLETYVLQLRKQREMKPKDSVYKPNASQIHAEIEKLKDLCKRVAVNKNNLPSICCYTIHNTYEGLTAAEISNDLKLMACGFKDSYVEVYSLTNESLKKLKSSSELAKSDIKTLNEEKFEEVGSSYKLVGHSGPVYGLKFFSSNKFLVSSSQDCTVCLWSLDLLCLLAVYKAHAFPVWCVDVAPNDYFFASGAGDRQAIVWSVMTSKPERLIISSLSDVTAVKFHPNSSYLFTGSSDHRVRMHDISTASVVRIFCGHTDTVTCMDVSHCGKFLASGSKDRTVLLWDIQSSKLLGKYVGHENTVFSVSFCFYGSVLASCGADNSVRLWDRTDHKGGCLGTYYTKNTPLLCVKFGYRNIISCTGPFIS	soluble
